From publication PMC10540840, “PET imaging with [^68Ga]-labeled TGFβ-targeting peptide in a mouse PANC-1 tumor model” (Frontiers in Oncology, 2023)
Peptide text beside a SMILES is read from it. * marks the point of attachment. DOTA = O=C(O)CN1CCN(CC(=O)O)CCN(CC(=O)*)CCN(CC(=O)O)CC1; PEG3 = NCCOCCOCCOCCC(=O)O

Experiments:
PC3 cells = test: Cell uptake (internalization) assay in PC3 cells; format: cell-based; conditions: 200 MBq/L, 0.5-5 h incubation, FCS-free medium, γ-counter, three series
Method: (§1) The method process for cell uptake assay of radiolabeled drug was as follows. First, the selected cell lines were inoculated into a 6-well plate, incubated for 48 h to achieve a cell coverage rate of approximately 80%–90% (1.2–2 × 10^6 cells/well), and replaced with 1 mL of fresh culture medium without fetal calf serum (FCS). Then, a certain amount of radionuclide-labeled drug (200 MBq/L) was added to the culture well and incubated for different times (0.5–5 h). The culture medium containing the drug was removed, and the cells were washed twice with 1 mL of phosphate-buffered saline (PBS) (pH 7.4). Cells were incubated with 1 mL of glycine HCl solution (1 M, pH 2.2) at room temperature for 10 min to remove surface binding, and the cells were washed with 2 mL of ice-cold PBS (collect washing solution for detection of binding amount). After that, 1.4 mL of lysis buffer (0.3 M of NaOH, 0.2% sodium dodecyl sulfate (SDS)) was used to lyse the cells and collect this lysate. With a γ-counter, the radioactive activity in the collected lysate was measured, and the %AD value was calculated. One mio (1 × 10^6) of cells was adopted for normalization, with the result representing the internalization uptake level of the tested radiopharmaceutical by this cell line. Each experiment was repeated three times independently, with three multiple wells set at each processing time point.

in vivo [1] = conditions: nude, mouse, iv, 1 mg/kg, total radioactivity
Method: Peptide conjugate P144-DOTA and the radiolabeled tracer [^68Ga]Ga-P144 were both administrated through tail vein injection. The chemical dose of [^68Ga]Ga-P144 was 1 mg/kg, and the radioactive dose was approximately 3.7 MBq in 200 μL per mouse. As a competitive blocker with the same target TGFβ, the dose of DOTA-P144 was 100 mg/kg (47.3 μmol/kg, 100 times the mass dose of the radiolabeled peptide conjugate), and the administration of this unlabeled peptide conjugate was followed after 10 min by 1 mg/kg of the radiolabeled tracer [^68Ga]Ga-P144. All the mice were deprived of food and water for 1 h before drug administration. Then, the mice were anesthetized with pentobarbital sodium (45 mg/kg) and scanned with microPET. […]
The tumor-bearing mice were anesthetized with pentobarbital sodium before microPET scanning. […] The body temperature of the mice was monitored by a rectal probe and kept at 37°C by a heated air stream. […] Images were processed and analyzed using PMOD4.2 software (PMOD Technologies Ltd., Zurich, Switzerland). […] Radioactivity values of the ROIs per unit volume were obtained, and the percentage of injected dose per tissue weight in gram (%ID/g) values of the different organs and tissues were calculated as follows: […]

[2] = Radio-HPLC radiochemical purity after standing at room temperature (stability); format: physicochemical; conditions: C18, room temperature, 4 h after synthesis
Method: Radio-HPLC and radio-iTLC assays were conducted for the quality control of product [^68Ga]Ga-DOTA-P144 and free [^68Ga] ions. American alltech1500 high-performance liquid chromatography and online radioactive detector were used. Chromatographic column: YMC-Pack Pro C18 RS (5 μm, 250 mm × 4.6 mm). Mobile phase: A) water + 0.1% formic acid; B) acetonitrile. Method: 0 min, 95% A and 5% B; 1 min, 95% A and 5% B; 10 min, 70% A and 30% B; 18 min, 70% A and 30% B; 25 min, 95% A and 5% B; flow speed, 1 mL/min. The quality control standard was that the chemical and radiochemical purities of the products were greater than 95%. Radio-iTLC analytical quantification methods/conditions were as follows. The stationary phase was iTLC glass fiber (1 cm × 8 cm instant silica gel strip), and the developing solvent was 2 mM of sodium citrate/citric acid buffer solution (pH 6.5). performed according to General Rule 1401 in Chinese Pharmacopoeia (2020 Edition), the method for the determination of radioactive drugs, the Rf value of the radioactive peak of the product to be tested was approximately 0.1–0.4, and there was a single main peak under normal conditions. If there were impurities, especially free [^68Ga] ions, the corresponding peaks should appear at the Rf value of approximately 0.6–0.8. […]

PANC-1 cells = test: Cell uptake (internalization) assay in PANC-1 cells; format: cell-based, human; conditions: 200 MBq/L, 0.5-5 h incubation, FCS-free medium, γ-counter, %AD per 1 × 10^6 cells, three series
Method: as §1

in vivo [3] = conditions: nude, mouse, iv, 1 mg/kg, total radioactivity; remark: listed apart in the source
Method: (§2) Pancreatic cancer cell line PANC-1 was obtained from the ATCC, and cells were cultured in complete RPMI1640 medium supplemented with 10% fetal calf serum (Life Technologies, Carlsbad, CA, USA). One portion of the PANC-1 cells (~1 × 10^6) was injected subcutaneously below the anterior axillary of the nude mice to induce the mouse heterotopic tumor model. The tumor cells were suspended in a mixture (v/v, 1:1) of medium and Matrigel (Corning Life Sciences, Corning, NY, USA). The tumor xenografts were generally palpable within 10 days after injection. Xenograft tumor sizes of the model mice were measured every 3 days. Short and long tumor diameters, tumor volume, and body weight were measured. When the xenograft tumor grew to a volume of 150–200 mm^3, the mice were used for PET imaging study. A diagnostic tracer and drug were injected approximately 2 weeks after the establishment of the tumor model.
(§3) Peptide conjugate P144-DOTA and the radiolabeled tracer [^68Ga]Ga-P144 were both administrated through tail vein injection. The chemical dose of [^68Ga]Ga-P144 was 1 mg/kg, and the radioactive dose was approximately 3.7 MBq in 200 μL per mouse. As a competitive blocker with the same target TGFβ, the dose of DOTA-P144 was 100 mg/kg (47.3 μmol/kg, 100 times the mass dose of the radiolabeled peptide conjugate), and the administration of this unlabeled peptide conjugate was followed after 10 min by 1 mg/kg of the radiolabeled tracer [^68Ga]Ga-P144. All the mice were deprived of food and water for 1 h before drug administration. Then, the mice were anesthetized with pentobarbital sodium (45 mg/kg) and scanned with microPET. After the last scanning, the mice were anesthetized with 2% pentobarbital sodium at 65 mg/kg intraperitoneally and then executed by dislocation of their cervical vertebra, and the tissues were harvested for analysis.
(§4) The tumor-bearing mice were anesthetized with pentobarbital sodium before microPET scanning. Each mouse was intravenously injected with approximately 3.7 MBq (90–120 μCi) of [^68Ga]Ga-P144. After administration, the mice were scanned by a small animal PET system (Inveon, Siemens, Munich, Germany). The body temperature of the mice was monitored by a rectal probe and kept at 37°C by a heated air stream. The scanning time was set as follows: static PET scanning for 10 min and scanning energy window 350–650 keV at four time points (1 h, 2 h, 3 h, and 4 h) after the injection. MicroPET image reconstruction was performed using a 3D OSEM PSF algorithm with five iterations. Images were processed and analyzed using PMOD4.2 software (PMOD Technologies Ltd., Zurich, Switzerland). Regions of interest (ROIs) of the brain, heart, liver, lungs, kidney, muscle, and tumor were delineated. Radioactivity values of the ROIs per unit volume were obtained, and the percentage of injected dose per tissue weight in gram (%ID/g) values of the different organs and tissues were calculated as follows:
(§5) %ID/g=radiouptake in ROI(kBq/g)/injection dose(kBq)×100.

[4] = system: PANC-1 tumor-bearing mice; test: in vivo; conditions: mouse
Method: as §2, §3, §4, §5

in vivo [5] = conditions: nude, mouse, iv, 1 mg/kg, total radioactivity; remark: listed apart in the source
Method: For biodistribution assay ex vivo, the PANC-1 tumor model mice were euthanized by pentobarbital sodium at 1 h after tracer administration. The blood was harvested via cardiac puncture, and the different organs/tissues were isolated, weighed, and counted on a γ-counter for radioactivity. The amount of the injected radiotracer was measured and used to determine the total number of counts of nuclei decay per minute (CPM) by comparison with a standard of known activity. The data were background- and decay-corrected and expressed as percentages of the injection dose per tissue weight in grams (%ID/g).

human glioblastoma cells = conditions: ref [28]; cited from earlier work
Text: TGFβ-specific blocking peptide P144 selected in this study was an analog of the essential structure for ligand recognition and binding in the extracellular domain of TGFβR3, which has high specificity and affinity to TGFβ ([36]). […] The doses of th ...

Molecule: CC[C@H](C)[C@H](NC(=O)[C@H](CO)NC(=O)[C@H](C)NC(=O)[C@H](CC(=O)O)NC(=O)[C@H](CC(C)C)NC(=O)[C@H](CO)NC(=O)[C@@H](NC(=O)CCOCCOCCOCCNC(=O)CN1CCN(CC(=O)O)CCN(CC(=O)O)CCN(CC(=O)O)CC1)[C@@H](C)O)C(=O)N[C@@H](Cc1c[nH]c2ccccc12)C(=O)N[C@@H](C)C(=O)N[C@@H](CCSC)C(=O)N[C@@H](CCSC)C(=O)N[C@@H](CCC(N)=O)C(=O)N[C@@H](CC(N)=O)C(=O)N[C@@H](C)C(N)=O [[^68Ga]Ga-P144, metal not drawn] ({DOTA-PEG3}-TSLDASIWAMMQNA-NH2; N-terminus and C-terminus assumed)
- cell uptake ratio (non-specific cellular uptake) (PC3 cells): very low level
- tissue uptake at 1 h (in vivo [1]): 5.36 ± 0.937 %ID/g
- radiochemical purity after purification and placement at room temperature for 4 h [2]: 98.87%
- cell uptake ratio (internalization) (PANC-1 cells): high and persistent
- tissue to tissue ratio at 1 h (in vivo [3]): 3.44 ± 1.53
- tissue to tissue ratio at 4 h (in vivo [3]): 3.77 ± 1.18
- tissue uptake at 1 h (in vivo [3]; uptake in heart): 5.74 ± 1.68 %ID/g
- tissue uptake at 4 h (in vivo [3]; uptake in heart): 3.92 ± 0.891 %ID/g
- tissue uptake at 1 h (in vivo [3]; uptake in kidneys): 3.32 ± 0.636 %ID/g
- tissue uptake at 4 h (in vivo [3]; uptake in kidneys): 2.8 ± 0.281 %ID/g
- tissue uptake at 1 h (in vivo [3]; uptake in liver): 4.01 ± 0.975 %ID/g
- tissue uptake at 4 h (in vivo [3]; uptake in liver): 2.91 ± 0.431 %ID/g
- tissue uptake at 1 h (in vivo [3]; uptake in lung): 3.56 ± 0.739 %ID/g
- tissue uptake at 4 h (in vivo [3]; uptake in lung): 2.19 ± 0.206 %ID/g
- tissue uptake at 1 h (in vivo [3]; uptake in tumors): 5.76 ± 1.21 %ID/g
- tissue uptake at 4 h (in vivo [3]; uptake in tumors): 6.02 ± 1.37 %ID/g
- tumor retention time [4]: > 4 h
- tissue uptake at 1 h (in vivo [5]; ex vivo radioactive biodistribution in heart): 4.89 ± 0.899 %ID/g
- tissue uptake at 1 h (in vivo [5]; ex vivo radioactive biodistribution in kidney): 2.98 ± 0.854 %ID/g
- tissue uptake at 1 h (in vivo [5]; ex vivo radioactive biodistribution in liver): 1.95 ± 0.717 %ID/g
- tissue uptake at 1 h (in vivo [5]; ex vivo radioactive biodistribution in lung): 3.16 ± 0.429 %ID/g
- tissue uptake at 1 h (in vivo [5]; ex vivo radioactive biodistribution in tumors): 4.63 ± 1.22 %ID/g

Molecule: TSLDASIWAMMQNA [P144]
- growth and proliferation of human glioblastoma cells (human glioblastoma cells): significantly inhibit
